Measured values reported in patent publication US20220010021A1 (Sanofi, published 2022).
Positions count from the first letter of the chain named. Names and notes keep the numbering of the source.

T1: human beta-Klotho (KLB) (human, UniProt Q86Z14 53-997)
T1 construct: Bought soluble protein; also called human KLB; ß-Klotho
T1 sequence (looked up): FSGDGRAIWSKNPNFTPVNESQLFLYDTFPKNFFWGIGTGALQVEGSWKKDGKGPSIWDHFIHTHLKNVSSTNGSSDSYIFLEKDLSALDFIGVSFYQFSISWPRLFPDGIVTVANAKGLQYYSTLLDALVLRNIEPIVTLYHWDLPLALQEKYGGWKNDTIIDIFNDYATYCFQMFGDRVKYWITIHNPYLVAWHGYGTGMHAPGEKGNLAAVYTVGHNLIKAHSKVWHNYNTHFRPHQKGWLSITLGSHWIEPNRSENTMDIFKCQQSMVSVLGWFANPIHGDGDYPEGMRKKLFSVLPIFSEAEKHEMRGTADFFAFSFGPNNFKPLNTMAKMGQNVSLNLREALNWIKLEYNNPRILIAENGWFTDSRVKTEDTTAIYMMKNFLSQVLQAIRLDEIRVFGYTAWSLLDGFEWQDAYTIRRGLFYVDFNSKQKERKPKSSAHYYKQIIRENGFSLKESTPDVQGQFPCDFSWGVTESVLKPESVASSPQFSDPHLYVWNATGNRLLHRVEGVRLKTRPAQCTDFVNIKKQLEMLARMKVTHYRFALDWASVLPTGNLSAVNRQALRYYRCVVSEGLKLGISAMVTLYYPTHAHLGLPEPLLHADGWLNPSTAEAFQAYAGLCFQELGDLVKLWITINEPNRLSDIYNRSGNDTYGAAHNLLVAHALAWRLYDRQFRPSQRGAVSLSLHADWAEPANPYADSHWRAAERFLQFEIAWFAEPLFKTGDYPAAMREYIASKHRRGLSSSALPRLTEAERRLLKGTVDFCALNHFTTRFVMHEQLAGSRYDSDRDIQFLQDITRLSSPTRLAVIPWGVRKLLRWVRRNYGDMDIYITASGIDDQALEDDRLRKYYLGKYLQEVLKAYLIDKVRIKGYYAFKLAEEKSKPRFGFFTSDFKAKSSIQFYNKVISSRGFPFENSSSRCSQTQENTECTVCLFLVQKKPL

T2: human beta-Klotho (KLB) (human, UniProt Q86Z14 53-997)
T2 construct: Bought protein; also called human KLB; β-Klotho
T2 sequence (looked up): T1 sequence (looked up)

B1: 16H7 variant with light chain substitution D95S (antibody, human IgG4 S228P, lambda, V domains shown)
VH: not shown
VL: SYVLTQPPSVSVAPGQTARITCGGNNIGSESVHWYQQKPGQAPVLVVYDDSDRPSGIPERFSGSNSGNTATLTISRVEAGDEADYYCQVWDGNSSHVVFGGGTKLTVLG
B2: 16H7 light chain variant G28A (antibody, human IgG4 S228P, lambda, V domains shown)
VH: not shown
VL: B1 VL with G28A, S95D
B3: 16H7 light chain variant E30F (antibody, V domains shown)
VH: not shown
VL: B1 VL with E30F, S95D
notes: copies: 2 + 2
B4: 16H7 light chain variant E30S (antibody, human IgG4 S228P, lambda, V domains shown)
VH: not shown
VL: B1 VL with E30S, S95D
B5: 16H7 light chain variant V97M (antibody, IgG4, V domains shown)
VH: not shown
VL: B1 VL with S95D, V97M
notes: IgG4 backbone
B6: 16H7 light chain variant G28D (antibody, human IgG4 S228P, lambda, V domains shown)
VH: not shown
VL: B1 VL with G28D, S95D
B7: 16H7 light chain variant V98S (antibody, IgG4, V domains shown)
VH: not shown
VL: B1 VL with S95D, V98S
notes: IgG4 backbone
B8: 16H7 light chain variant E30I (antibody, human IgG4 S228P, lambda, V domains shown)
VH: not shown
VL: B1 VL with E30I, S95D
B9: 16H7 light chain variant E30Q (antibody, V domains shown)
VH: not shown
VL: B1 VL with E30Q, S95D
notes: copies: 2 + 2
B10: 16H7 light chain variant E30Y (antibody, V domains shown)
VH: not shown
VL: B1 VL with E30Y, S95D
notes: copies: 2 + 2
B11: 16H7 light chain variant V97T (antibody, IgG4, V domains shown)
VH: not shown
VL: B1 VL with S95D, V97T
notes: IgG4 backbone
B12: 16H7 light chain variant V98I (antibody, IgG4, V domains shown)
VH: not shown
VL: B1 VL with S95D, V98I
notes: IgG4 backbone
B13: 16H7 light chain variant E30V (antibody, V domains shown)
VH: not shown
VL: B1 VL with E30V, S95D
notes: copies: 2 + 2
B14: 16H7 light chain variant V98R (antibody, IgG4, V domains shown)
VH: not shown
VL: B1 VL with S95D, V98R
notes: IgG4 backbone
B15: 16H7 light chain variant V98C (antibody, IgG4, V domains shown)
VH: not shown
VL: B1 VL with S95D, V98C
notes: IgG4 backbone
B16: 16H7 light chain variant E30A (antibody, V domains shown)
VH: not shown
VL: B1 VL with E30A, S95D
notes: copies: 2 + 2
B17: 16H7 light chain variant E30G (antibody, human IgG4 S228P, lambda, V domains shown)
VH: not shown
VL: B1 VL with E30G, S95D
B18: 16H7 light chain variant E30T (antibody, V domains shown)
VH: not shown
VL: B1 VL with E30T, S95D
notes: copies: 2 + 2
B19: 16H7 light chain variant E30N (antibody, V domains shown)
VH: not shown
VL: B1 VL with E30N, S95D
notes: copies: 2 + 2
B20: 16H7 light chain variant V98F (antibody, IgG4, V domains shown)
VH: not shown
VL: B1 VL with S95D, V98F
notes: IgG4 backbone
B21: 16H7 light chain variant G28E (antibody, human IgG4 S228P, lambda, V domains shown)
VH: not shown
VL: B1 VL with G28E, S95D
B22: 16H7 light chain variant E30C (antibody, V domains shown)
VH: not shown
VL: B1 VL with E30C, S95D
notes: copies: 2 + 2
B23: 16H7 light chain variant V98M (antibody, IgG4, V domains shown)
VH: not shown
VL: B1 VL with S95D, V98M
notes: IgG4 backbone
B24: 16H7 light chain variant E30R (antibody, V domains shown)
VH: not shown
VL: B1 VL with E30R, S95D
notes: copies: 2 + 2
B25: 16H7 light chain variant E30D (antibody, human IgG4 S228P, lambda, V domains shown)
VH: not shown
VL: B1 VL with E30D, S95D
B26: 16H7 light chain variant V97L (antibody, IgG4, V domains shown)
VH: not shown
VL: B1 VL with S95D, V97L
notes: IgG4 backbone
B27: 16H7 light chain variant E30M (antibody, V domains shown)
VH: not shown
VL: B1 VL with E30M, S95D
notes: copies: 2 + 2
B28: 16H7 light chain variant G28C (antibody, human IgG4 S228P, lambda, V domains shown)
VH: not shown
VL: B1 VL with G28C, S95D
B29: 16H7 light chain variant V98N (antibody, IgG4, V domains shown)
VH: not shown
VL: B1 VL with S95D, V98N
notes: IgG4 backbone
B30: 16H7 light chain variant V98P (antibody, IgG4, V domains shown)
VH: not shown
VL: B1 VL with S95D, V98P
notes: IgG4 backbone
B31: 16H7 light chain variant E30L (antibody, V domains shown)
VH: not shown
VL: B1 VL with E30L, S95D
notes: copies: 2 + 2
B32: 16H7 light chain variant V97N (antibody, IgG4, V domains shown)
VH: not shown
VL: B1 VL with S95D, V97N
notes: IgG4 backbone
B33: 16H7 light chain variant V98Q (antibody, IgG4, V domains shown)
VH: not shown
VL: B1 VL with S95D, V98Q
notes: IgG4 backbone
B34: 16H7 variant with light chain substitution S94K (antibody, human IgG4 S228P, lambda, V domains shown)
VH: not shown
VL: B1 VL with S94K, S95D

Key:
[1] = target: cell surface receptor composed of the tyrosine kinase receptor FGFR1c and co-receptor beta-Klotho (KLB) (human, UniProt P11362 22-822; Q86Z14 1-1044); test: cell-based or functional assay
[2] = target: cell surface receptor composed of FGFR1c and co-receptor beta-Klotho (KLB) (human, UniProt P11362 22-822; Q86Z14 1-1044); test: cell-based or functional assay
Target sequence in this assay (P11362 22-822, chain 1 of 2): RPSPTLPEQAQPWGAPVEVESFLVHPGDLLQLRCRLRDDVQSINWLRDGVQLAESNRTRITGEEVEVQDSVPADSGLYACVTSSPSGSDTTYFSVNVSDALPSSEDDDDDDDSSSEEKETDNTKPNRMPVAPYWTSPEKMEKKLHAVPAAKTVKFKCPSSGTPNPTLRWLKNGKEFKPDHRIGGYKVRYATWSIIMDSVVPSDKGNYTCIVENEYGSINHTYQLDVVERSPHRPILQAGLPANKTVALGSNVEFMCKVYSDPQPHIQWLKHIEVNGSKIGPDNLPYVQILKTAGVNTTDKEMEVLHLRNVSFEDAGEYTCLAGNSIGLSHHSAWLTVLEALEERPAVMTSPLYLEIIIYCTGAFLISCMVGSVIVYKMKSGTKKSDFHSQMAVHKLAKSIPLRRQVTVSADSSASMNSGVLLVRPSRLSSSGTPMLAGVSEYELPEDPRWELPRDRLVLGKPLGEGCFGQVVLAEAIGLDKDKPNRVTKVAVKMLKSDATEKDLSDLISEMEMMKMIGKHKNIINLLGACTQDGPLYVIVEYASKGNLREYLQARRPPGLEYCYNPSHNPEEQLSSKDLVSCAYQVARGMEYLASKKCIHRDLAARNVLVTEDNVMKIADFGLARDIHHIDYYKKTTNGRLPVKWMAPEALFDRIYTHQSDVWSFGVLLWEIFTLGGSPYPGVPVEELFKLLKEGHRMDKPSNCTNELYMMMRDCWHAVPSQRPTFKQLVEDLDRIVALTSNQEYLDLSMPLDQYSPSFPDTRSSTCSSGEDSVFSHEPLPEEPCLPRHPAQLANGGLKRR
Target sequence in this assay (Q86Z14 whole entry, chain 2 of 2): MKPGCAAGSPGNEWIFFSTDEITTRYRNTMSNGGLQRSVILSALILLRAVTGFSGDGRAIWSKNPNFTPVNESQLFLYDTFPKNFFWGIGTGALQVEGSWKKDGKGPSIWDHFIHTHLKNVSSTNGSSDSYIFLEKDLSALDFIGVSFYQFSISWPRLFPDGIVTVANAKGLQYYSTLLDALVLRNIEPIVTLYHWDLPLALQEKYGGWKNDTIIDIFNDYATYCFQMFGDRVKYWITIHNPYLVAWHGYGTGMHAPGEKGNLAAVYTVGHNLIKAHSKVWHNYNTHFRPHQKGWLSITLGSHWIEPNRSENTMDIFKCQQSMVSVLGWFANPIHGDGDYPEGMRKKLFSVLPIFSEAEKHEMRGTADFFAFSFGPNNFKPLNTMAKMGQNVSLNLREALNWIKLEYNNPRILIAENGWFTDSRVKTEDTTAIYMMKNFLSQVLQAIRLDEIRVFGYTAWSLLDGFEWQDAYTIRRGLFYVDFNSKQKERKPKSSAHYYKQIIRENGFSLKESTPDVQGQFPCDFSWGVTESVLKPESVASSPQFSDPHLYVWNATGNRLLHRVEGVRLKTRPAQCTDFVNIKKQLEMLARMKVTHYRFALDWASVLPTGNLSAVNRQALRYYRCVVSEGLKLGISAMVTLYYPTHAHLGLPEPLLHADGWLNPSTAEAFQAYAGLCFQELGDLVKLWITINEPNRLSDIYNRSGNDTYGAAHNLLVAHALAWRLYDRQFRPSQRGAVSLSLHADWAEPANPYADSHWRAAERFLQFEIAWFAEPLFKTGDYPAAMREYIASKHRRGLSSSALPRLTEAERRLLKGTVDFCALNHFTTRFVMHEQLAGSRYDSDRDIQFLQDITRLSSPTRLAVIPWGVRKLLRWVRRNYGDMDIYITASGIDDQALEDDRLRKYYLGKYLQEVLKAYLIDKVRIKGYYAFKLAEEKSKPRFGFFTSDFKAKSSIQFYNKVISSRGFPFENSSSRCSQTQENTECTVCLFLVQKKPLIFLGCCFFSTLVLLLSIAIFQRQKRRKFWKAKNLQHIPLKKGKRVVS

[3] = target: T1, human beta-Klotho (KLB); test: BLI off-rate screen, supernatant;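 further: expression supernatants tested at 25 µg/mL, dissociation followed for 1800 s in D-PBS with 0.1% BSA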
[4] = target: cell surface receptor composed of FGFR1c and co-receptor beta-Klotho (KLB) (human, UniProt P11362 22-822; Q86Z14 1-1044); test: cell-based or functional assay; remark: listed apart in the source
Target sequence in this assay (P11362 22-822, chain 1 of 2): as the sequence (P11362 22-822, chain 1 of 2) above
Target sequence in this assay (Q86Z14 whole entry, chain 2 of 2): as the sequence (Q86Z14 whole entry, chain 2 of 2) above

[5] = target: T2, human beta-Klotho (KLB); test: BLI off-rate screening (Octet), crude supernatant;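 further: supernatants tested at 25 µg/mL, dissociation from biosensors recorded in D-PBS with 0.1% BSA over 1800 s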
Wherever Mean E max, Luciferase reporter gene assay is given: reference of the scale not given here.

Chain of cell surface receptor composed of the tyrosine kinase receptor FGFR1c and co-receptor beta-Klotho (KLB) (P11362 22-822, chain 1 of 2): as the sequence (P11362 22-822, chain 1 of 2) above
Chain of cell surface receptor composed of the tyrosine kinase receptor FGFR1c and co-receptor beta-Klotho (KLB) (Q86Z14 whole entry, chain 2 of 2): as the sequence (Q86Z14 whole entry, chain 2 of 2) above

Row | Binder | Mean E max, Luciferase gene reporter assay [1] [%] | Mean E max, Luciferase reporter gene assay [2] [%] | Mean EC50, Luciferase reporter gene assay [2] [nM] | koff [3] [s⁻¹] | Mean E max, Luciferase reporter gene assay [4] [%] | Mean EC50, Luciferase reporter gene assay [4] [nM] | koff [5] [s⁻¹] | Mean EC50, Luciferase gene reporter assay [1] [nM]
1 | B1 | 37 |  |  |  |  |  |  | 
2 | B2 |  | 92 | 0.123 | 3.3e-05 |  |  |  | 
3 | B3 |  | 92 | 0.107 | 9.7e-05 |  |  |  | 
4 | B4 |  | 114 | 0.132 | 1.6e-05 |  |  |  | 
5 | B5 |  |  |  |  | 103 | 0.214 | 3.3e-05 | 
6 | B6 |  | 107 | 0.126 | 4e-05 |  |  |  | 
7 | B7 |  |  |  |  | 107 | 0.094 | 3.9e-05 | 
8 | B8 |  | 108 | 0.136 | 7.3e-05 |  |  |  | 
9 | B9 |  | 99 | 0.123 | 1e-07 |  |  |  | 
10 | B10 |  | 107 | 0.152 | 7.6e-05 |  |  |  | 
11 | B11 |  |  |  |  | 99 | 0.142 | 0.0001 | 
12 | B12 |  |  |  |  | 116 | 0.105 | 3.3e-05 | 
13 | B13 |  | 108 | 0.14 | 4.1e-05 |  |  |  | 
14 | B14 |  |  |  |  | 99 | 0.099 | 0.00011 | 
15 | B15 |  |  |  |  | 100 | 0.105 | 6.4e-05 | 
16 | B16 |  | 103 | 0.146 | 5.1e-05 |  |  |  | 
17 | B17 |  | 94 | 0.138 | 4.8e-05 |  |  |  | 

Row | Binder | Mean E max, Luciferase gene reporter assay [1] [%] | Mean E max, Luciferase reporter gene assay [2] [%] | Mean EC50, Luciferase reporter gene assay [2] [nM] | koff [3] [s⁻¹] | Mean E max, Luciferase reporter gene assay [4] [%] | Mean EC50, Luciferase reporter gene assay [4] [nM] | koff [5] [s⁻¹] | Mean EC50, Luciferase gene reporter assay [1] [nM]
18 | B18 |  | 100 | 0.105 | 4.9e-05 |  |  |  | 
19 | B19 |  | 110 | 0.163 | 2.4e-05 |  |  |  | 
20 | B20 |  |  |  |  | 102 | 0.161 | 1.6e-05 | 
21 | B21 |  | 105 | 0.12 | 1.8e-05 |  |  |  | 
22 | B22 |  | 92 | 0.114 | 9.6e-05 |  |  |  | 
23 | B23 |  |  |  |  | 108 | 0.114 | 7.2e-05 | 
24 | B24 |  | 96 | 0.162 | 3.7e-05 |  |  |  | 
25 | B25 |  | 96 | 0.118 | 3.6e-05 |  |  |  | 
26 | B26 |  |  |  |  | 110 | 0.129 | 5.9e-05 | 
27 | B27 |  | 100 | 0.12 | 3.8e-05 |  |  |  | 
28 | B28 |  | 100 | 0.103 | 9.1e-06 |  |  |  | 
29 | B29 |  |  |  |  | 112 | 0.111 | 2.1e-05 | 
30 | B30 |  |  |  |  | 89 | 0.131 | 7.3e-05 | 
31 | B31 |  | 96 | 0.16 | 6.9e-05 |  |  |  | 
32 | B32 |  |  |  |  | 95 | 0.206 | 0.00033 | 
33 | B33 |  |  |  |  | 111 | 0.121 | 3.7e-05 | 
34 | B34 | 104 |  |  |  |  |  |  | 0.185
